Test results: patent US20240325555A1 (LANOVA MEDICINES, published 2024)

T1: human LIV-1 (human, UniProt Q13433 29-755)
T1 sequence (looked up): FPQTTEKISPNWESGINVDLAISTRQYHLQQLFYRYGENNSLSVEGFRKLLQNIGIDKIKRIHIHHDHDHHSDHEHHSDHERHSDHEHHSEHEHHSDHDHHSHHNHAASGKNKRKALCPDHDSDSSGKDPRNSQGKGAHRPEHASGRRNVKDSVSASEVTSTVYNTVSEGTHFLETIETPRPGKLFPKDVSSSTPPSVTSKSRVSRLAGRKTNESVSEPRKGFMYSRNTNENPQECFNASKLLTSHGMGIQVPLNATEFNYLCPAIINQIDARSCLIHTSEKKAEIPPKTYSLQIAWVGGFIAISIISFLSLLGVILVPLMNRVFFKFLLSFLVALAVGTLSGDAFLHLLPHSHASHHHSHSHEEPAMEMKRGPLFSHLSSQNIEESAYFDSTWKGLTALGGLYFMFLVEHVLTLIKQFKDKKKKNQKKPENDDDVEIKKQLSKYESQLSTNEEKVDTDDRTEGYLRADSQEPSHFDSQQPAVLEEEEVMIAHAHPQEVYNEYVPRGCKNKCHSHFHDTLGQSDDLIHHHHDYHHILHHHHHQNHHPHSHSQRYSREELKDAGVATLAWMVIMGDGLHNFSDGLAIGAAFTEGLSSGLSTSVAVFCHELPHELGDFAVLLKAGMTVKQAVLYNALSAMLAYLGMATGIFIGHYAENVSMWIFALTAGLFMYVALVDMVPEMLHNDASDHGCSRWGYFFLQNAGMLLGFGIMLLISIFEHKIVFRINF

B1: 56B3E6 (antibody, V domains shown)
VH: EVQLQQSGAELVRSGASVKLSCTASGFNIKDYYIHWVKQRPEQGLEWIGWIDPENDDTEYAPKFQGKATMTADTSSNTAYLHLSSLTSEDTAVYYCPHGGGFRVFDSWGQGTTLTVSS
VL: DVLMTQTPLSLPVSLGDQASISCRSSQDIVHSNGNTYLEWYLQKPGQSPKLLIYKVSNRFSGVPDRFSGSGSGTDFTLKISRVEAEDLGVYYCFQGSHVPWTFGGGTKLEIK
notes: Tested as chimeric antibody
B2: 72B12F1 (antibody, V domains shown)
VH: EVQLQQSGAELVKPGASVKLSCTASGFNIKDTYMHWVKQRPEQGLEWIGRIDPANGNTKNDPRFQGKATITADTSSNTAYLQLSRLTSEDTAVYYCAGGGITTVVPDHWGQGTTLTVSS
VL: DVVMTQTPLSLPVSLGDQASISCRSSQSLVHSNGNTYLQWYLQKPGQSPKLLIYKVSNRFSGVPDRFSGSGSGTDFTLKISRVEAEDLGVYFCSQSTHVPYTFGGGTKLEIK
notes: Tested as chimeric antibody
B3: 69B3D6 (antibody, V domains shown)
VH: QVQLQQSGPELVKPGASVRISCKASGYTFTSYHMHWVKQRPGQGLEWIGWIYPGNVKNQSNEKFKGKATLTADKSSSTAYMQLSSLTSEDSAVYFCARSDITRAFFAYWGQGTLVTVSA
VL: DVLMTQTPLSLPVSLGDQASISCRSSQSIVHSNGNTYLEWYLQKPGQSPKLLIYKVSNRFSGVPDRFSGSGSGTDFTLKISRVEAEDLGVYYCFQGSHVPYTFGGGTKLEIK
notes: Tested as chimeric antibody
B4: 50H12B3 (antibody, V domains shown)
VH: QVQLKQSGPGLVQPSQSLSITCTVSGFSLTSYGVHWVRQSPGKGLEWLGVIWTGGTTDYNAAFKSRLSISKDNSKSQVFFKMNSLQANDTAIYYCARGPSSYWGQGTLVTVSA
VL: DIVMTQSQKFMSTSVGDRVSVTCKASQNVDTNVVWYQQKPGQSPKALIHSTSYRYSGVPDRFTGSGSGTDFTLTISNVQSEDLAEYFCQQYNNYPWTFGGGTKLEIK
notes: Tested as chimeric antibody
B5: 124H4D11.p2.z1 (antibody, V domains shown)
VH: QVQLVQSGAEVVKPGASVKVSCKASGFNIKDYYMHWVRQAPGQGLEWIGWIDPENDDTEYDPKFQGRVTMTADTSTSTVYMELSSLRSEDTAVYYCAARYYAFDYWGQGTMVTVSS
VL: DVQMTQSPSSLSASVGDRVTITCRSSQSIVHSNANTYLEWYLQKPGKSPKLLIYKVSNRFSGVPDRFSGSGSGTDFTLTISSLQPEDFATYYCFQGSQVPPTFGQGTRLEIK
B6: 124H4D11.p2.z13 (antibody, V domains shown)
VH: QVPLVQSGAEVVKPGASVKLSCKASGFNIKDYYMHWVKQAPGQGLEWIGWIDPENDDTEYDPKFQGRATMTADTSTSTAYLELSSLRSEDTAVYYCNARYYAFDYWGQGTTVTVSS
VL: DVLMTQSPSSLSVSVGDRATISCRSSQSIVHSNANTYLEWYLQKPGKSPKLLIYKVSNRFSGVPDRFSGSGSGTEFTLTISSVQPEDFGVYYCFQGSQVPPTFGGGTRLEIK
B7: 124H4D11.p2.z3 (antibody, V domains shown)
VH: QVQLVQSGAEVVKPGASVKVSCKASGFNIKDYYMHWVRQAPGQGLEWIGWIDPENDDTEYDPKFQGRVTMTADTSTSTVYMELSSLRSEDTAVYYCAARYYAFDYWGQGTMVTVSS
VL: DVLMTQSPSSLSVSVGDRATISCRSSQSIVHSNANTYLEWYLQKPGKSPKLLIYKVSNRFSGVPDRFSGSGSGTEFTLTISSVQPEDFGVYYCFQGSQVPPTFGGGTRLEIK
B8: 124H4D11.p2.z12 (antibody, V domains shown)
VH: QVPLVQSGAEVVKPGASVKLSCKASGFNIKDYYMHWVKQAPGQGLEWIGWIDPENDDTEYDPKFQGRATMTADTSTSTAYLELSSLRSEDTAVYYCNARYYAFDYWGQGTTVTVSS
VL: DVLMTQSPSSLSASVGDRVTITCRSSQSIVHSNANTYLEWYLQKPGKSPKLLIYKVSNRFSGVPDRFSGSGSGTEFTLTISSVQPEDFAVYYCFQGSQVPPTFGQGTRLEIK
B9: 124H4D11.p2.z7 (antibody, V domains shown)
VH: QVPLVQSGAEVVKPGASVKVSCKASGFNIKDYYMHWVRQAPGQGLEWIGWIDPENDDTEYDPKFQGRATMTADTSTSTAYMELSSLRSEDTAVYYCNARYYAFDYWGQGTTVTVSS
VL: DVLMTQSPSSLSASVGDRVTITCRSSQSIVHSNANTYLEWYLQKPGKSPKLLIYKVSNRFSGVPDRFSGSGSGTEFTLTISSVQPEDFAVYYCFQGSQVPPTFGQGTRLEIK
B10: 290F10G10.p1.Z5 (antibody, V domains shown)
VH: EVQLVQSGAEVKKPGASVKVSCKASGYTFTSYWIHWVRQAPGQGLEWMGTIYPGDADTRSTQKFKDRVTVTADKSTSTVYMELSSLRSEDTAVYYCARSLIHDDYDKYYFDYWGQGTTVTVSS
VL: DIQMTQSPSSLSASVGDRVTITCKARQDINKYIAWYQQKPGKAPKLLIHYTSILQPGIPSRFSGSGSGRDYTFTISSLQPEDIATYYCLQYDYFFTFGGGTKVEIK
B11: 290F10G10.p1.Z4 (antibody, V domains shown)
VH: EVQLVQSGAEVKKPGASVKVSCKASGYTFTSYWIHWVRQAPGQGLEWMGTIYPGDADTRSTQKFKDRVTVTADKSTSTVYMELSSLRSEDTAVYYCARSLIHDDYDKYYFDYWGQGTTVTVSS
VL: DIQMTQSPSSLSASVGDRVTITCKARQDINKYIAWYQQKPGKAPKLLIYYTSILQPGVPSRFSGSGSGRDYTFTISSLQPEDIATYYCLQYDYFFTFGGGTKVEIK
B12: 290F10G10.p1.Z1 (antibody, V domains shown)
VH: EVQLVQSGAEVKKPGASVKVSCKASGYTFTSYWIHWVRQAPGQGLEWMGTIYPGDADTRSTQKFKDRVTMTADTSTSTVYMELSSLRSEDTAVYYCARSLIHDDYDKYYFDYWGQGTTVTVSS
VL: DIQMTQSPSSLSASVGDRVTITCKARQDINKYIAWYQQKPGKAPKLLIYYTSILQPGVPSRFSGSGSGRDYTFTISSLQPEDIATYYCLQYDYFFTFGGGTKVEIK
B13: 290F10G10.p1.Z3 (antibody, V domains shown)
VH: EVQLVQSGAEVKKPGASVKVSCKASGYTFTSYWIHWVRQAPGQGLEWMGTIYPGDADTRSTQKFKDRVTMTADTSTSTVYMELSSLRSEDTAVYYCARSLIHDDYDKYYFDYWGQGTTVTVSS
VL: DIQMTQSPSSLSASVGDRVTITCKARQDINKYIAWYQHKPGKGPKLLIHYTSILQPGIPSRFSGSGSGRDYTFTISSLQPEDIATYYCLQYDYFFTFGGGTKVEIK

Legend:
[1] = molecular target: T1, human LIV-1; assay: cell-based or functional assay
[2] = molecular target: T1, human LIV-1; assay: cell-based or functional assay; remark: listed apart in the source
[3] = molecular target: T1, human LIV-1; assay: FACS, HEK293/H_LIV-1 cells
Experimental: (§1) In this example, cell based binding of chimeric Abs on human and cyno LIV-1 over-expressing HEK 293 cells were assessed using flow cytometry.
(§2) Briefly, cells were incubated with chimeric Abs (from 100 nM, 5 folds dilution, 8 points). After incubation at 4° C. for 60 minutes, the cells were washed with 2% FBS/PBS buffer twice, then stained with fluorescent conjugated secondary antibody at 4° C. for 30 minutes. After that the cells were washed twice and resuspended in 80 μL of 2% FBS/PBS buffer. Fluorescent signal of binding was detected using Agilent. The EC50 was calculated using the GraphPad Software (LaJolla, CA).

[4] = molecular target: T2, cynomolgus LIV-1 (cynomolgus, UniProt A0A2K5WH46 30-741); assay: FACS, HEK293/Cyno_LIV-1 cells
Experimental: as §1, §2

[5] = molecular target: T1, human LIV-1; assay: FACS, HEK293/H_LIV-1 cells; remark: listed apart in the source
Experimental: (§3) In this example, cell based binding of humanized antibodies (hu Abs) on human LIV-1-expressing cells were assessed using flow cytometry.
(§4) Cell based binding of hu-Abs on human LIV-1 expressing cells were assessed using flow cytometry. Briefly, the HEK293/H_LIV-1 cells were incubated with hu-Abs (from 100 nM, 6 folds dilution, 8 points). After incubation at 4° C. for 60 minutes, the cells were washed with FACS buffer twice, then stained with fluorescent conjugated secondary antibody at 4° C. for 30 minutes. After that the cells were washed twice and analyzed by flow cytometry.

[6] = molecular target: T2, cynomolgus LIV-1; assay: FACS, HEK293/Cyno_LIV-1 cells; remark: listed apart in the source
[7] = molecular target: T2, cynomolgus LIV-1; assay: FACS, cyno LIV-1 cells
Target sequence in this assay (A0A2K5WH46 entry or part of it): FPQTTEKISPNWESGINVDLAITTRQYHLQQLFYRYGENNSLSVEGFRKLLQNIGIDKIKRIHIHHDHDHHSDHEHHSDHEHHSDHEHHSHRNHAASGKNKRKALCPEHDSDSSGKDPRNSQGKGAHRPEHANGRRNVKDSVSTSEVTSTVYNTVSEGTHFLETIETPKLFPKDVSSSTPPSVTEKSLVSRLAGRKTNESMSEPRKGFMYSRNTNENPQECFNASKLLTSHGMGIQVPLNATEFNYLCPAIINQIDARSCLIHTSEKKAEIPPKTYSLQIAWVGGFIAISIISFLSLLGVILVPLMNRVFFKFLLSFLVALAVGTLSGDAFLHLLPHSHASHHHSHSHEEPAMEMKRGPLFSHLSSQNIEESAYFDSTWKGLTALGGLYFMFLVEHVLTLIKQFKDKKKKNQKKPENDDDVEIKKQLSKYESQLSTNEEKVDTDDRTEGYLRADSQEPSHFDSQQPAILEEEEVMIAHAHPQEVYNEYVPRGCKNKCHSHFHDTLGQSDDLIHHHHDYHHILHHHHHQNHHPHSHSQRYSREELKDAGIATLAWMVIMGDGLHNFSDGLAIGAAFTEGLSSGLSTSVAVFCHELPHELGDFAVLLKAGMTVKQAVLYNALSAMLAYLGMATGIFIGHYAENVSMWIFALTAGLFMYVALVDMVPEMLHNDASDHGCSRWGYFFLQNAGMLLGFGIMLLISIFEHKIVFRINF

[8] = molecular target: T1, human LIV-1; assay: FACS, human LIV-1 cells
Experimental: as §3, §4

Binder | EC50 [3] [nM] | Top (MFI) [3] [MFI] | EC50 [4] [nM] | Top (MFI) [4] [MFI] | EC50 [5] [nM] | Top (MFI) [5] [MFI] | EC50 [6] [nM] | Top (MFI) [6] [MFI] | EC50 [7] [nM] | Top (MFI) [7] [MFI] | EC50 [8] [nM] | Top (MFI) [8] [MFI] | other results
B1 | 0.13 | 13300 | 0.21 | 9280 | – | – | – | – | – | – | – | – | ADCC reporter EC50 [1]: 1.3 nM; ADCC reporter Top (RFU) [1]: 52300 RFU; Internalization EC50 [2]: 5 nM; Internalization Top (RFU) [2]: 388000 RFU
B2 | 0.79 | 10700 | 0.36 | 7470 | – | – | – | – | – | – | – | – | Internalization EC50 [2]: 7.2 nM; Internalization Top (RFU) [2]: 353000 RFU
B3 | 0.18 | 11500 | 0.17 | 6600 | – | – | – | – | – | – | – | – | ADCC reporter EC50 [1]: 25.3 nM; ADCC reporter Top (RFU) [1]: 47200 RFU
B4 | 0.23 | 63000 | 0.21 | 35900 | – | – | – | – | – | – | – | – | ADCC reporter EC50 [1]: 0.2 nM; ADCC reporter Top (RFU) [1]: 95600 RFU
B5 | – | – | – | – | 0.89 | 16800 | 0.29 | 8200 | – | – | – | – | –
B6 | – | – | – | – | 7.48 | 17000 | – | 9030 | – | – | – | – | –
B7 | – | – | – | – | 0.12 | 19400 | 0.04 | 8300 | – | – | – | – | –
B8 | – | – | – | – | – | 15800 | 3.8 | 7570 | – | – | – | – | –
B9 | – | – | – | – | 37.2 | 15800 | 1.48 | 7750 | – | – | – | – | –
B10 | – | – | – | – | – | – | – | – | 0.5 | 7370 | 0.32 | 7390 | –
B11 | – | – | – | – | – | – | – | – | 0.34 | 7140 | 0.24 | 7790 | –
B12 | – | – | – | – | – | – | – | – | 0.85 | 7190 | 0.56 | 7540 | –
B13 | – | – | – | – | – | – | – | – | 0.4 | 6750 | 0.27 | 7600 | –
